# Reference: patent publication US20200055896A1, “SUBSTRATES RECOGNIZED BY FIBROBLAST ACTIVATION PROTEIN (FAP) AND METHODS OF USING THE SAME” (GENENTECH, INC., priority 2017, published 2020)
# No end group written: not given here.
# Key:
# [1] = target: T1, FAP endopeptidase activity in the plasma (Mus musculus, UniProt P97321); experiment: FRET-quench assay: probe cleavage in mouse plasma (Fap WT, heterozygous, KO); type: biochemical, mice
# T1 construct: the extracellular domain encoding the active enzyme can be shed from the cell surface; from tissue; host or cells: mouse plasma (C57BL/6 background; Fap +/+, +/-, -/-)
# T1 sequence (P97321 24-761 limits assumed): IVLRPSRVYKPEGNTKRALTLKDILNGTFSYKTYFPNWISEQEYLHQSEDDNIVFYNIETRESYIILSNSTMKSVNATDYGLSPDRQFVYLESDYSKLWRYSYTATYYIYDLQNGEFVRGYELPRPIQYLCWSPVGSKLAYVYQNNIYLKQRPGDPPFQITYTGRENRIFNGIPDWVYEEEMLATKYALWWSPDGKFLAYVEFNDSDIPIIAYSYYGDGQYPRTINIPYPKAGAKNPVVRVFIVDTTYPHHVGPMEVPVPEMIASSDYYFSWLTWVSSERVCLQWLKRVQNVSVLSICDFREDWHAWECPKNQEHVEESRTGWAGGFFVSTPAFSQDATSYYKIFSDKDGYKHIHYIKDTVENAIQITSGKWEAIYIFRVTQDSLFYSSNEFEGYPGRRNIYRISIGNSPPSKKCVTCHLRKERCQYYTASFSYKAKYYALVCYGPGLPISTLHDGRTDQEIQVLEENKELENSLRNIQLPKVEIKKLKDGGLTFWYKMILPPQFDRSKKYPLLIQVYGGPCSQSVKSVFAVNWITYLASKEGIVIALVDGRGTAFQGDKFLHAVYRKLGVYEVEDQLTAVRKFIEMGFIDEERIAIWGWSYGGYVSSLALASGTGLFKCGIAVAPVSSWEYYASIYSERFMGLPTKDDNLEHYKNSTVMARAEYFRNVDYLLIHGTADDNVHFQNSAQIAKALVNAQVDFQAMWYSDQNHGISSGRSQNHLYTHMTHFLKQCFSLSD
# Procedure: (§1) Mouse plasma samples were prepared in K3-EDTA MiniCollect tubes (Greiner Bio-One, 450475) and frozen immediately at −80° C. prior to analysis. Human serum samples were obtained from healthy donors or purchased from Discovery Life Sciences, Inc. (Los Osos, Calif.).
# (§2) Peptides of the region flanking the C-terminal human FGF21 cleavage site (VGPSQG) or a variant with D-alanine at P2 (VaPSQG) were synthesized (Anaspec, Inc.), containing an amine-terminal donor (HyLite Fluor 488 or Cy5.5 for aP NIRF) and a dark quencher-acceptor (QXL 520 or QSY21 for aP NIRF) conjugated to a supplementary C-terminal lysine. ANPFAP (Bioconjugate Chem 23:1704-11) and aP NIRF were synthesized by CPC Scientific (Sunnyvale, Calif.). Assays were conducted at 37° C. in 50 mM HEPES (pH 7.2), 150 mM NaCl, 1 mM EDTA, 0.1 mg/ml BSA. The excitation/emission wavelengths of cleaved peptide are 490/520 nm or 675/695 nm for ANPFAP and aP NIRF. Fluorescence was monitored on a Tecan M1000 Pro plate reader in kinetic mode. Except where indicated otherwise, measurements of serum or plasma FAP activity were performed with the peptide substrate concentration at 6 μM and a 10-fold dilution of serum or plasma in assay buffer.
# [2] = system: human S9 and S28 peptidases; experiment: aP cleavage by a panel of recombinant human prolyl peptidases; type: biochemical; details: each recombinant peptidase at 2.5 μg/ml
# Source text: Human prolyl oligopeptidase (PREP, 4308-SE), DPPIV (1180-SE), DPP9 (5419-SE), and DPPII/DPP7 (3438-SE) proteins were purchased from R&D Systems. Human DPP8 (BML-SE527) protein was purchased from Enzo Life Sciences. N-terminal octa-His-tagged human and mouse FAP proteins containing the extracellular domain (residues L26-D760 and L26-D761, respectively) were purified from the conditioned media of transiently-transfected CHO cells, by immobilized metal affinity chromatography (IMAC), followed by size exclusion chromatography (SEC).
# as §2, with “Except where indicated otherwise, measurements of serum or plasma FAP activity were performed with the peptide substrate concentration at 6 μM and a 10-fold dilution of serum or plasma in assay buffer.” left out
# serum FAP = target: T2, serum FAP (Homo sapiens, UniProt Q12884); experiment: aP probe fluorescence assay of FAP activity in human serum versus FAP ELISA; type: biochemical
# T2 construct: the extracellular domain encoding the active enzyme can be shed from the cell surface; tissue Discovery Life Sciences, Inc. (part of the samples); host or cells: human serum (healthy donors, cirrhosis patients)
# T2 sequence (Q12884 24-760 limits assumed): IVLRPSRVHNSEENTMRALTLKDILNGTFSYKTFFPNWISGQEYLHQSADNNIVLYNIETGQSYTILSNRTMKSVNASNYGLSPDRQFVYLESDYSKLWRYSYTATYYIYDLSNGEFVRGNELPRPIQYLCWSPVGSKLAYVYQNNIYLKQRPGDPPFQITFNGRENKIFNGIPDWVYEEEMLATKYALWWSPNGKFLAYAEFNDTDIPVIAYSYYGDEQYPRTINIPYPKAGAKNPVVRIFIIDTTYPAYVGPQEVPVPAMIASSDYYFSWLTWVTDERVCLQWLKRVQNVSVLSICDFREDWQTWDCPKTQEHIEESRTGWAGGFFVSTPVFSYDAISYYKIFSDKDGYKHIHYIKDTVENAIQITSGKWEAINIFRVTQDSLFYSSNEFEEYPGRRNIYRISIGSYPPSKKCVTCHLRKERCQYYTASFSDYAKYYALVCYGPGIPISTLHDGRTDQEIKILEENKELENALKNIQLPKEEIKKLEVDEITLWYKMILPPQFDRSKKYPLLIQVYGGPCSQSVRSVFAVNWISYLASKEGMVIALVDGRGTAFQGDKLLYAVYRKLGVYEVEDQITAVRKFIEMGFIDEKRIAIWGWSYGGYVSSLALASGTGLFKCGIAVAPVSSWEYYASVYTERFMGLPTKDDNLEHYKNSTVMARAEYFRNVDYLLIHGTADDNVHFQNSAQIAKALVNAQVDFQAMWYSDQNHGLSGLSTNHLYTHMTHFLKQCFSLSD
# Procedure: as §1
# Serum FAP concentration was measured using the human FAP DuoSet ELISA kit (R&D Systems, DY3715), according to the manufacturer's protocol.
# as §2
# [3] = system: human or mouse recombinant FAP; experiment: Michaelis-Menten kinetics of GP and aP cleavage by recombinant FAP; type: biochemical; details: corrected for active enzyme concentration
# Procedure: Michaelis-Menten kinetic measurements were carried out using 5 nM human or mouse recombinant FAP, with a series of peptide substrate titrations. Initial rate of substrate hydrolysis was determined using the Magellan software on a Tecan M1000 Pro plate reader and kinetic parameters were modeled using nonlinear regression analysis with GraphPad Prism software. Standard error was calculated from three experimental replicates.
# As described by Copeland ((2000) Enzymes: a practical introduction to structure, mechanism, and data analysis, 2nd ed., J. Wiley, New York) the active enzyme concentration was determined from the x-intercept.
# FAP = target: T3, FAP (Homo sapiens, UniProt Q12884); experiment: aP cleavage in anti-FAP or control IgG-immunodepleted human serum; type: biochemical; details: after FAP immunodepletion; serum diluted 2.5-fold
# T3 construct: the extracellular domain encoding the active enzyme can be shed from the cell surface; tissue Discovery Life Sciences, Inc. (part of the samples); host or cells: human serum (healthy donors, cirrhosis patients)
# T3 sequence (Q12884 24-760 limits assumed): T2 sequence (Q12884 24-760 limits assumed)
# Procedure: as §1, §2
"probe cleavage signal in plasma ([1]; plasma from WT (Fap+/+) mice, 3 μM peptide)","probe cleavage activity in plasma ([1]; plasma from homozygous Fap KO mice, 3 μM peptide)",Substance,"probe cleavage activity in plasma ([1]; plasma from Fap heterozygous mice, 3 μM peptide)",cleavage by human S9 and S28 peptidases [2],lowest FAP level detected with the activity assay (serum FAP) [ng/mL],Km relative to parental GP peptide [3],decrease in kcat relative to GP peptide [3],cleavage signal in human serum (FAP),"probe cleavage in plasma ([1]; Fap KO plasma, plasma diluted 10-fold)","probe cleavage signal in plasma ([1]; WT plasma, plasma diluted 10-fold)","probe cleavage signal in plasma ([1]; heterozygous plasma, plasma diluted 10-fold)"
strong signal,"even lower, but significant activity",GP probe: human FGF21 cleavage-site peptide VGPSQG with amine-terminal HyLite Fluor 488 donor and QXL 520 quencher on supplementary C-terminal lysine ({HyLite Fluor 488}-VGPSQGK(QXL 520)),approximately half the activity as that from WT mice,,,,,,,,
,,aP probe: FGF21-based peptide VaPSQG (D-alanine at P2) with HyLite Fluor 488 donor and QXL 520 quencher,,did not exhibit an ability to cleave,63,essentially unchanged,seven to eight-fold decrease,signal is lost,no cleavage,clear signal,intermediate
